Among the data in the supplement of paper PMC10126150 are switch fluorescence ratio values, retold here.

± gives the standard deviation of the averaged measurements.

The series deals with ATP. Nature of the series: switch fluorescence ratio, 500 uM ATP over buffer (Cy3 cluster intensity, sum of 5 cycles each) (fold (ratio)); higher = stronger signal-on switching upon ATP binding; sequences stand for … in TCGTCGGCAGCGTCAGATGTGTATAAGAGACAGTTTTTTTTTTTTTTTTTTTTTTTTT…TC. The following applies: aptamer strand: ATP DNA aptamer (quencher-CACCTGGGGGAGTATTGCGGAGGAAGG + anchor), 100 nM annealed; ATP concentration: 500 uM. In outline:
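Clusters carrying Cy3-labelled switching strands on a modified Illumina MiSeq flow-cell were annealed to 100 nM quencher-labelled ATP aptamer and imaged in selection buffer. They were imaged again after 15 min with 500 uM ATP at 22 °C, over five buffer/ATP cycles with NaOH stripping and re-annealing in between. For each cluster, the fluorescence ratio is the summed Cy3 intensity of the target cycles divided by that of the buffer cycles, averaged per switch-domain sequence. Clusters outside 100-1000 RFU were left out.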
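Also: ATP exposure 15 min at 22 °C before imaging.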

Take TCTTGGATGT: the switch fluorescence ratio was found to be 1.0101 ± 5.3e-05.
Take TCTTGGTA: the switch fluorescence ratio was found to be 0.959 ± 0.031.
Then TCTTGGTCTC, with 0.995 ± 0.027.
Then TCTTGTATGG, with 0.9906 ± 0.006; and TCTTTAAAGG, with 1.04 ± 0.039.
Then TCTTTCCGGT, with 1.14 ± 0.23; and TCTTTCGGAG, with 1.33 ± 0.077.
For TCTTTGAAGA, the switch fluorescence ratio was determined as 1.14 ± 0.24.
Then TCTTTGGACC, with 1.04 ± 0.056; and TCTTTGGTGG, with 1.03 ± 0.038.
Then TCTTTTCATT, with 0.994 ± 0.022; and TCTTTTCCCT, with 1.02 ± 0.086.
For the sequence TCTTTTGCCT, the switch fluorescence ratio was found to be 1.01 ± 0.034.
The value for TCTTTTGCTT was 1.01 ± 0.032; that for TCTTTTGGCA was 1.1 ± 0.078; that for TCTTTTGGTT was 1.011 ± 0.0051.
On to TCTTTTTTTC, for which the switch fluorescence ratio stood at 1.02 ± 0.034.
The value for TGAAAAAAAT was 1.05 ± 0.058; that for TGAAAAACCG was 1.14 ± 0.12.
Then TGAAAAACGT, with 0.991 ± 0.013; and TGAAAAAGGT, with 0.9993 ± 0.0021; and TGAAAAGGTA, with 1 ± 0.013.
On to TGAAAGAGGC, for which the switch fluorescence ratio came out at 0.999 ± 0.014.
TGAAAGGATT: the switch fluorescence ratio worked out at 1.02 ± 0.025.
The value for TGAAAGGTGG was 1.04 ± 0.018; that for TGAAAGTGTT was 0.994 ± 0.012; that for TGAAATGGGA was 1.0074 ± 0.00077.
The value for TGAACGGGGA was 1.02 ± 0.031; that for TGAACTAATT was 1.01 ± 0.0099; that for TGAACTTAGT was 0.995 ± 0.02.
The value for TGAACTTTTA was 0.965 ± 0.061; that for TGAAGAAAGT was 0.998 ± 0.032; that for TGAAGATTAT was 0.988 ± 0.012.
Regarding TGAAGGAGAA, the switch fluorescence ratio was 0.929 ± 0.037.
With TGAAGGGGAT, the switch fluorescence ratio was 1.02 ± 0.045.
Then TGAAGTACTT, with 1.06 ± 0.011; and TGAAGTCGGT, with 0.9681 ± 0.0066; and TGAAGTTGGG, with 1.11 ± 0.15.
Then TGAATAGTGT, with 0.996 ± 0.044; and TGAATCGGGG, with 1.027 ± 0.0014; and TGAATGAGGG, with 0.993 ± 0.029.
The value for TGAATGCGCC was 1.01 ± 0.025.
Take TGAATGCTTT: the switch fluorescence ratio was determined as 1.23 ± 0.3.
Then TGAATGGAGG, with 0.988 ± 0.042; and TGAATGGGGT, with 0.987 ± 0.02; and TGAATGGTCG, with 1.05 ± 0.036.
The value for TGAATTCGGG was 1.01 ± 0.064.
The value for TGAATTCTTG was 1 ± 0.034.
As for TGAATTGCAT, the switch fluorescence ratio came out at 0.96601 ± 0.00064.
Then TGAATTGGTC, with 1.06 ± 0.16; and TGAATTGTTT, with 0.993 ± 0.043.
The value for TGAATTTCTG was 1.029 ± 0.0094; that for TGAATTTGTA was 0.993 ± 0.03; that for TGACAAGGGG was 1.05 ± 0.044.
Then TGACACATGA, with 1.02 ± 0.013.
Consider TGACACTTGG, for which the switch fluorescence ratio turned out to be 0.99 ± 0.011.
Then TGACAGTCAG, with 0.968 ± 0.02.
The value for TGACATAATT was 1.01 ± 0.046.
Then TGACATGGGG, with 0.9827 ± 0.0051.
With TGACCACCAG, the switch fluorescence ratio is 0.993 ± 0.019.
Then TGACCGAATT, with 1.03 ± 0.054; and TGACCGAGCG, with 0.9603 ± 0.0065; and TGACCGATCA, with 1 ± 0.021.
Then TGACCGGCTT, with 1.05 ± 0.013; and TGACGAACTC, with 1.32 ± 0.045; and TGACGAGCGG, with 1.04 ± 0.061.
Then TGACGCAGGA, with 2.53 ± 1.8; and TGACGCCTGA, with 1.02 ± 0.022.
With TGACGGATGG, the switch fluorescence ratio was determined as 1.03 ± 0.051.
The value for TGACGGTGGC was 1.02 ± 0.017; that for TGACTAATAA was 1.02 ± 0.013.
TGACTAGGGA: the switch fluorescence ratio amounted to 0.992 ± 0.021.
On to TGACTCGAGT, for which the switch fluorescence ratio was determined as 1.01 ± 0.012.
Consider TGACTGCGGG, for which the switch fluorescence ratio was found to be 1.01 ± 0.015.
The value for TGACTGGCTT was 1.014 ± 0.01.
For the sequence TGACTTATGT, the switch fluorescence ratio is 1.014 ± 0.0037.
The value for TGACTTTTGT was 0.98 ± 0.0015.
Then TGAGAAGACT, with 1.03 ± 0.033; and TGAGACGAAA, with 1.07 ± 0.052; and TGAGAGGGAC, with 1.05 ± 0.013.
The value for TGAGAGGGGG was 1 ± 0.083.
As for TGAGAGGTGG, the switch fluorescence ratio turned out to be 1 ± 0.036.
For TGAGAGTTCA, the switch fluorescence ratio came to 1.006 ± 0.0032.
The value for TGAGATCACT was 1 ± 0.013.
Then TGAGATCTGG, with 0.982 ± 0.035; and TGAGATTATT, with 1.01 ± 0.038; and TGAGATTCAG, with 0.985 ± 0.02.
The value for TGAGATTGTG was 1.02 ± 0.037; that for TGAGATTGTT was 1.01 ± 0.028.
For the sequence TGAGCAAGGT, the switch fluorescence ratio was 1.203 ± 0.0039.
Then TGAGCCCCGG, with 1.03 ± 0.028; and TGAGCCCGCT, with 1 ± 0.016.
Turning to TGAGCCCGGG, the switch fluorescence ratio came out at 0.97 ± 0.013.
With TGAGCGACTT, the switch fluorescence ratio stood at 1.005 ± 0.0095.
Then TGAGCGGTAG, with 1.028 ± 0.004.
Then TGAGCGTGAG, with 1.01 ± 0.015; and TGAGCTGATG, with 0.986 ± 0.032; and TGAGGAAGGT, with 1.016 ± 0.009.
The value for TGAGGAATTT was 1 ± 0.029; that for TGAGGACAGG was 1.06 ± 0.054.
TGAGGAGAAT: the switch fluorescence ratio turned out to be 0.996 ± 0.028.
The value for TGAGGAGGGG was 0.989 ± 0.048; that for TGAGGATCCA was 0.985 ± 0.013.
The value for TGAGGCAGCT was 1.06 ± 0.11.
Then TGAGGCAGGA, with 1.04 ± 0.042; and TGAGGGAAGA, with 1.05 ± 0.051; and TGAGGGACGC, with 0.996 ± 0.021.
Turning to TGAGGGATTC, the switch fluorescence ratio came to 1 ± 0.047.
Then TGAGGGCAGG, with 1.023 ± 0.007; and TGAGGGCGGC, with 0.962 ± 0.12; and TGAGGGCTAG, with 1 ± 0.015.
Then TGAGGGCTTT, with 1.013 ± 0.0023; and TGAGGGGATT, with 1 ± 0.022; and TGAGGGGCTA, with 1.01 ± 0.049.
On to TGAGGGGGAA, for which the switch fluorescence ratio is 1.03 ± 0.033.
Then TGAGGGGGGC, with 1.01 ± 0.044; and TGAGGGGGTA, with 0.995 ± 0.033; and TGAGGGGTGC, with 1.04 ± 0.029.
Then TGAGGGTGGG, with 1.01 ± 0.058.
The value for TGAGGGTTTG was 1.02 ± 0.044.
